Source: US20240207377A1

Biological target: Recombinant Human TACE/ADAM17 (930-ADB, R&D Systems) (human) (UniProt P78536)
Assay: cell-based or functional assay

Sequence of UniProt P78536 (P78536 215-671 limits assumed): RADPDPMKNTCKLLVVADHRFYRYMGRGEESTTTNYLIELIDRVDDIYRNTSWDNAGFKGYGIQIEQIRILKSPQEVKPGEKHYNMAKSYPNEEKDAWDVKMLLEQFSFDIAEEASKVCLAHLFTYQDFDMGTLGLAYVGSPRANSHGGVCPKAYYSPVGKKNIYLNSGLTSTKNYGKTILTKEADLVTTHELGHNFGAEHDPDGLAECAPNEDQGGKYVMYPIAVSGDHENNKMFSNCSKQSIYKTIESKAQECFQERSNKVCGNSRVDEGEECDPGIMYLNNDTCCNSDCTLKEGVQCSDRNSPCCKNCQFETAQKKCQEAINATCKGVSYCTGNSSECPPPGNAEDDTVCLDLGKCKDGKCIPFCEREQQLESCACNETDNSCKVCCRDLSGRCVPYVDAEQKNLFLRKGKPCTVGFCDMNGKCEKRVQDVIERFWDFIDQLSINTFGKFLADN

A TACE activity in a cell-free assay (fluorogenic peptide substrate Mca-PLAQAV-Dpa-RSSSR-NH2), IC50 of 15.3 µM was found for “human alpha-1-antitrypsin (AAT) (Sigma Aldrich, batch A6150) (from UniProt P01009 25-418)” in this work.
